Assay results: patent publication US20020176866A1
Non-standard residues stand in square brackets, D forms with d. No end group written: not given here.

How the values were obtained:
[1] = molecular target: rat MHC class II (I-A or I-E) on splenic adherent cells (antigen presenting cells) (rat); assay: competition with 10 µM biotin-labeled MBP (87-99) on rat splenic adherent cells, flow cytometry; competitor at 200 µM
[2] = molecular target: rat MHC class II (I-A or I-E) on splenic adherent cells (antigen presenting cells) (rat); assay: competition with 10 µM biotin-labeled MBP native peptide on rat splenic adherent cells, flow cytometry; competitor at 100 µM

| percent inhibition of binding at 200 µM [1] [%] | percent inhibition of binding at 100 µM [2] [%] | Binder |
| --- | --- | --- |
| 67.6 | – | VV[dH]FFANIVTPRT [h88/A91, peptide analog of MBP (87-99) with D-histidine at residue 88 and alanine at residue 91] |
| – | 25 | D[dA]NPVVHAFANIVTPRT [a83, A89, A91 peptide analog of human myelin basic protein] |
| 68.4 | 40 | VVHFFKNIVTPRT [MBP (87-99), human myelin basic protein residues 87-99] |
